The target of this test is β2 adrenoceptor, tagged at the amino-terminus with the FLAG epitope (UniProt P07550). Briefly: cell-based or functional assay.

The substance “membrane-tethered Gsα (tetGsα) (from UniProt P07550 1-64; P07550 343-412)” registered a GTPγS-sensitive high-affinity agonist binding sites of 30%; a basal GTPase activity, tetGsα membranes compared to Gsα membranes of 1.6 fold; an isoproterenol-stimulated GTPase activity, tetGsα membranes compared to Gsα membranes of 2.8 fold.

The values are drawn from patent publication US6448377.
